In patent publication US20200354449A1 (NBE THERAPEUTICS, published 2020):
Substitutions are numbered along the chain they refer to.

B1: GK-5A1 (mAb271) (antibody, human IgG1)
heavy: not shown
light: EIVLTQSPSTLSASVGDRVTITCRASQSISSWLAWYQQKPGKAPKLLIYKASSLESGVPSRFSGSGSGTEFTLTISSLQPDDFATYYCQQYNSYWTFGQGTKVDIKRTVAAPSVFIFPPSDEQLKSGTASVVCLLNNFYPREAKVQWKVDNALQSGNSQESVTEQDSKDSTYSLSSTLTLSKADYEKHKVYACEVTHQGLSSPVTKSFNRGECGGGGGSLPETG
notes: Human IgG1/kappa; not shown: Strep tag
B2: GK-1E5 (mAb270) (antibody, human IgG1)
heavy: not shown
light: B1 light with E1D, V3Q, S93N, D104E
notes: as for B1
B3: MK-3B12 (mAb272) (antibody, human IgG1)
heavy: not shown
light: B1 light with E1D, L4M, S93N, D104E
notes: as for B1
B4: GK-2G8 (antibody, human IgG1)
heavy: not shown
light: B1 light with L4M, S93N
notes: Human IgG1/kappa; the molecule is assigned by the clone name; not shown: Strep tag
B5: GK-6B10 (antibody, human IgG1)
heavy: not shown
light: DIVMTQSPSTLSASVGDRVTITCRASQSIDNWLAWYQQKPGKAPKVLIYKASSLESGVPSRFSGSGSGTEFTLTISSLQPDDFATYYCQQYNSYSYTFGQGTKLEIKRTVAAPSVFIFPPSDEQLKSGTASVVCLLNNFYPREAKVQWKVDNALQSGNSQESVTEQDSKDSTYSLSSTLTLSKADYEKHKVYACEVTHQGLSSPVTKSFNRGECGGGGGSLPETG
notes: as for B4
B6: MK-7C3 (antibody, human IgG1)
heavy: not shown
light: B5 light with D1A, V3R, S28T, D30S, Y36F, T85S, K103R
notes: as for B4
B7: GK-5G12 (antibody, human IgG1)
heavy: not shown
light: EIVLTQSPSSLSASVGDRVTITCRASQGISNYLAWYQQKPGKVPKLLIYAASTLQSGVPSRFSGSGSGTDFTLTISSLQPEDVATYYCQKYNSAPYTFGQGTKLEIKRTVAAPSVFIFPPSDEQLKSGTASVVCLLNNFYPREAKVQWKVDNALQSGNSQESVTEQDSKDSTYSLSSTLTLSKADYEKHKVYACEVTHQGLSSPVTKSFNRGECGGGGGSLPETG
notes: as for B4
B8: GK-22G12 (mAb418) (antibody, human IgG1)
heavy: not shown
light: DIVMTQSPSSLSASVGDRVTITCRASQGISNYLAWYQQKPGKVPKLLIYAASTLQSGVPSRFSGSGSGTDFTLTISSLQPEDVSTYYCQKHNRAPWTFGQGTKLEIKRTVAAPSVFIFPPSDEQLKSGTASVVCLLNNFYPREAKVQWKVDNALQSGNSQESVTEQDSKDSTYSLSSTLTLSKADYEKHKVYACEVTHQGLSSPVTKSFNRGECGGGGGLPETG
notes: Human IgG1/kappa; The light chain tag is printed G5LPETG, perhaps a misprint of G5SLPETG; also called MK-22G12; not shown: TwinStrep tag
B9: GK-21D3 (mAb399; mAb417) (antibody, human IgG1)
heavy: not shown
light: B7 light with E1D, V3Q, V15I, A84S, Y96W, L104V, E105D
notes: also called GK-21D3 (mAb417); MK-21D3; not shown: TwinStrep tag

What follows are binders tested against T1, mouse ROR2-TwinStrep (mouse, UniProt Q9Z138 34-403) (assay: ELISA, panel 'Coating: Mouse ROR2' (mouse ROR2-TwinStrep 2 µg/mL), 3-fold dilution series of antibody, HRP anti-human IgG, OD 490 nm).
T1 construct: also called mROR2; murine ROR2; not shown: TwinStrep tag
Procedure: (§1) Binding of antibodies to hROR2, mouse ROR2 (mROR2) and cynomolgus ROR2 (cROR2) was evaluated in an ELISA-based assay. For this, ELISA plates were coated with 50 μL of 2 μg/ml, in sodium bicarbonate coating buffer (0.1M Na₂CO₃, 0.1M NaHCO₃, pH 9.6), of: (a) an anti-human Fc (Jackson Immunoresearch, 109-006-098), (b) hROR2-TwinStrep, (c) cynomolgus ROR2-TwinStrep or (d) mouse ROR2-TwinStrep. Following 1-2-days incubation at 4° C., plates were washed with PBS supplemented with 0.05% (v/v) of Tween 20 and blocked with 150 μL of PBS supplemented with 0.05% (v/v) of Tween 20 and 3% of bovine serum albumin (BSA). Thereafter, 3-fold or 4-fold dilutions of purified antibodies starting at 0.5 or 2 μg/ml, respectively, in PBS supplemented with 1% (w/v) bovine serum albumin (BSA) and 0.05% (v/v) of Tween 20 were added. Following 1 h incubation at 37° C., plates were washed with PBS supplemented with 0.05% (v/v) of Tween 20 prior to addition of HRP-conjugated anti-human IgG (Jackson Immunoresearch, 109-036-008). Following further plate washing, plates were developed with 50 μL of Sigmafast OPD Tablet set (Sigma, P9187) and the reaction stopped by addition of 2M sulfuric acid. Plates were read on an ELISA plate reader (OD 490).

T1 sequence (Q9Z138 34-403 V372M): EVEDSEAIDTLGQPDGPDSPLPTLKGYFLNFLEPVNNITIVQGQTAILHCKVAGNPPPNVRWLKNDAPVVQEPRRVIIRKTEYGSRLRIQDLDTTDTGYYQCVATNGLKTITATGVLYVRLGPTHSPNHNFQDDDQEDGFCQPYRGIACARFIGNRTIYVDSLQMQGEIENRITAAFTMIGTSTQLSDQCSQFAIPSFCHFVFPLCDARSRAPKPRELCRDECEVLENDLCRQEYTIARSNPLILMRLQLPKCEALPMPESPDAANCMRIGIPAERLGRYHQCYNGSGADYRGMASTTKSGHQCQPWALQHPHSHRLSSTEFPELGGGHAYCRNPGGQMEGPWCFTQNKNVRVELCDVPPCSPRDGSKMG

Binding result, binds:
B1

Binding result, no binding:
B2, B3, B4, B5, B6, B7

These binders were tested against T1, mouse ROR2-TwinStrep (assay: ELISA, panel 'mouse ROR2' (mouse ROR2-TwinStrep 2 µg/mL coated), 4-fold dilutions of purified antibody from 2000 ng/mL, HRP anti-human IgG, OD 490 nm).
Procedure: as §1

Binding result, no binding (tested: 2000 ng/mL):
B8, B9
